The results in this text go back to publication PMC5290487.

The target of test [1] is MK2 (mitogen-activated protein kinase-activated protein kinase 2), endogenous in COS-1 cells. Description: co-immunoprecipitation (IP of endogenous MK2, western blot for PDE4A5), quantified. Particulars: COS-1 cell lysates; parent: est. 100; read off a plot. For orientation: Immunoblotting shows a protein as a band on a membrane.
Test [2] shares this target. The test is described as above. Conditions: COS-1 cell lysates; parent: est. 100; read off a plot. The source holds these as a separate data set.

Consider “PDE4A5 (long PDE4A isoform), wild type (from UniProt P54748-1) F141A”, for which, in test [1], the percent of parent (% binding of MK2 in Wt IP) amounted to 58.
“PDE4A5 (long PDE4A isoform), wild type (from UniProt P54748-1) F141A; L142A; Y143A”: the percent of parent (% binding of MK2 in Wt IP) in test [1] was 1.5; in test [2] it was 2.
Consider “PDE4A5 (long PDE4A isoform), wild type (from UniProt P54748-1) F693A; Q694A; F695A”, for which, in test [2], the percent of parent (% binding of MK2 in Wt IP) was determined as 63.
Take “PDE4A5 (long PDE4A isoform), wild type (from UniProt P54748-1) I654A; L655A; D656A”: the percent of parent (% binding of MK2 in Wt IP) in test [2] is 88.
Consider “PDE4A5 (long PDE4A isoform), wild type (from UniProt P54748-1) L142A”, for which the percent of parent (% binding of MK2 in Wt IP) in test [1] amounted to 73.
As for “PDE4A5 (long PDE4A isoform), wild type (from UniProt P54748-1) T698A; L699A; E700A; E701A”, in test [2], the percent of parent (% binding of MK2 in Wt IP) is 67.
On the same count and under the same terms, the value for “PDE4A5 (long PDE4A isoform), wild type (from UniProt P54748-1) W664A; Y665A; H666A; S667A” was 80.
On to “PDE4A5 (long PDE4A isoform), wild type (from UniProt P54748-1) Y143A”, for which, in test [1], the percent of parent (% binding of MK2 in Wt IP) was found to be 79.
